Positions of bridges follow the written chain, without caps; N, C: chain ends. No end group written: not given here. Linker 15a = not defined here; Linker 15b = not defined here; Linker 10 = not defined here; Linker 11 = not defined here; Linker 12 = not defined here; Linker 13 = not defined here; Linker 16 = not defined here; Linker 7 = not defined here

For 22 molecules, EC50 results are on record in patent US12398178 (PARABILIS MEDICINES, dated 2025).

The experiment deals with T1, full-length β-Catenin (UniProt P35222 2-781, limits assumed).
T1 construct: mature; also called beta-catenin; beta-Catenin
T1 sequence (looked up): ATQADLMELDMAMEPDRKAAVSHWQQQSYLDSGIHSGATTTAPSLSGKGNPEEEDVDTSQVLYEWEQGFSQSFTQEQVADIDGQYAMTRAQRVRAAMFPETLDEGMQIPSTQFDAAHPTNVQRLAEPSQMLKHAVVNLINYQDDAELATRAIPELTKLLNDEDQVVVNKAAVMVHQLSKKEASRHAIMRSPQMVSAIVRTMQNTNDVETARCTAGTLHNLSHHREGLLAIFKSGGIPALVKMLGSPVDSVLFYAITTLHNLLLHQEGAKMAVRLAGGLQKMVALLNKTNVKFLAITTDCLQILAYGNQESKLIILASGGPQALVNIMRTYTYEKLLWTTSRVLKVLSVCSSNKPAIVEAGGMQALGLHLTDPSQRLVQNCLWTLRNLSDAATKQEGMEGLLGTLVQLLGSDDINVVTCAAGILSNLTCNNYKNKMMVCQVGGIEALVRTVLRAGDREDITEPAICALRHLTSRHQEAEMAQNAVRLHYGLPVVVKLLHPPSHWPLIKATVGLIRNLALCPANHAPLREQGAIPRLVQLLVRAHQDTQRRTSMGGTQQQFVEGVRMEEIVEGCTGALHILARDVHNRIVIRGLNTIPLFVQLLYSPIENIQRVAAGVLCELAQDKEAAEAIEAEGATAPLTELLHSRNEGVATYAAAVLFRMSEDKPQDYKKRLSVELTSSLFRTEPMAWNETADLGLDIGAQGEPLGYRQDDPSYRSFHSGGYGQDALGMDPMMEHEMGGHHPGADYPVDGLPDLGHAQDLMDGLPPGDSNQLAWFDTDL
Kind of experiment: competition fluorescence polarization vs FITC-Axin peptide probe on full-length beta-catenin. The protocol: Peptide assessment: In one assay for assessing binding to beta-catenin, peptide solutions were prepared in buffer (50 mM Tris pH 8.0, 250 mM NaCl, 2% glycerol, 0.5 mM EDTA, 0.02% w/v sodium azide) using a 3-fold serial dilution from 5 μM. Probe solution (15 nM full-length β-Catenin, 20 nM FITC labeled Axin peptide in buffer ([FAM-PEG1-RRWPR(S5)ILD(S5)HVRRVWR (SEQ ID NO: 44)] where the two S5 residues are stapled, as reported in: Proc Natl Acad Sci USA. 2012 Oct. 30; 109(44):17942-7)) was prepared and incubated for 5 minutes, then 40 μL per well plated in a black polystyrene 384-well plate (Corning). Equal volume of the titrated peptide was added to the plate and incubated protected from light for 15 minutes prior to read. Reads were performed on a Spectramax M5 (Molecular Devices) in duplicate.
In general, EC50 refers to the midpoint of the concentration-response curve. Low readings indicate higher potency in that assay, high ones lower potency in that assay. As to ADPATHRCEWAALHCELV (linker 8-15 via Linker 7 (inferred); reading uncertain, synthetic cysteine-stapled peptide) [Peptide ID 1, ADPATHRCEWAALHCELV, staple type Linker 7], the concentration giving a half-maximal response (EC50) amounted to 5.2 µM.
Take ADPALWACEHAALICETQ (linker 8-15 via Linker 10 (inferred); reading uncertain, synthetic cysteine-stapled peptide) [Peptide ID 40, ADPALWACEHAALICETQ, staple type Linker 10]: the EC50 worked out at 9.55 µM. Against the preceding molecule, the EC50 is about 1.8-fold higher.
Molecule ADPALWACEHAALICETQ (linker 8-15 via Linker 13 (inferred); reading uncertain, synthetic cysteine-stapled peptide) [Peptide ID 43, ADPALWACEHAALICETQ, staple type Linker 13] gave an EC50 of 4.59 µM.
ADPATHRCEWAALHCELV (linker 8-15 via Linker 11 (inferred); reading uncertain, synthetic cysteine-stapled peptide) [Peptide ID 32, ADPATHRCEWAALHCELV, staple type Linker 11] gave an EC50 of 5.17 µM.
Then ADPALADCILAAHMCQLW (linker 8-15 via Linker 7 (inferred); reading uncertain, synthetic cysteine-stapled peptide) [Peptide ID 4, ADPALADCILAAHMCQLW, staple type Linker 7], with 5.52 µM; and ADPALWACEHAALICETQ (linker 8-15 via Linker 12 (inferred); reading uncertain, synthetic cysteine-stapled peptide) [Peptide ID 42, ADPALWACEHAALICETQ, staple type Linker 12], with 4.52 µM; and ADPAEDECILAAHMCRWW (linker 8-15 via Linker 7 (inferred); reading uncertain, synthetic cysteine-stapled peptide) [Peptide ID 8, ADPAEDECILAAHMCRWW, staple type Linker 7], with 0.255 µM.
The result for ADPADWECEHAALICDAM (linker 8-15 via Linker 7 (inferred); reading uncertain, synthetic cysteine-stapled peptide) [Peptide ID 12, ADPADWECEHAALICDAM, staple type Linker 7] reads 0.815 µM; that for ADPAQDHCILDTHICRIW (linker 8-15 via Linker 7 (inferred); reading uncertain, synthetic cysteine-stapled peptide) [Peptide ID 6, ADPAQDHCILDTHICRIW, staple type Linker 7], 0.047 µM; that for ADPALWACEHAALICETQ (linker 8-15 via Linker 16 (inferred); reading uncertain, synthetic cysteine-stapled peptide) [Peptide ID 46, ADPALWACEHAALICETQ, staple type Linker 16], 5.82 µM.
For the molecule ADPALWACEHAALICETQ (linker 8-15 via Linker 15b (inferred); reading uncertain, synthetic cysteine-stapled peptide) [Peptide ID 45, ADPALWACEHAALICETQ, staple type Linker 15b], a half-maximal effect (EC50) was put at 5.57 µM. This EC50 and that of the molecule before are within 1.5-fold of each other.
For the molecule ADPAYWLCEHAALICEVE (linker 8-15 via Linker 7 (inferred); reading uncertain, synthetic cysteine-stapled peptide) [Peptide ID 13, ADPAYWLCEHAALICEVE, staple type Linker 7], the EC50 was 0.456 µM. Against the preceding molecule, the EC50 is about 12-fold lower.
ADPATHRCEWAALHCELV (linker 8-15 via Linker 13 (inferred); reading uncertain, synthetic cysteine-stapled peptide) [Peptide ID 34, ADPATHRCEWAALHCELV, staple type Linker 13] gave a 50% effective concentration (EC50) of 4.32 µM.
As for ADPAQWPCEHAALLCEIE (linker 8-15 via Linker 7 (inferred); reading uncertain, synthetic cysteine-stapled peptide) [Peptide ID 14, ADPAQWPCEHAALLCEIE, staple type Linker 7], the EC50 came to 0.404 µM.
For the molecule ADPATHRCEWAALHCELV (linker 8-15 via Linker 12 (inferred); reading uncertain, synthetic cysteine-stapled peptide) [Peptide ID 33, ADPATHRCEWAALHCELV, staple type Linker 12], the EC50 came out at 5.35 µM.
In the case of ADPAEDECILNNHICRIW (linker 8-15 via Linker 7 (inferred); reading uncertain, synthetic cysteine-stapled peptide) [Peptide ID 7, ADPAEDECILNNHICRIW, staple type Linker 7], the concentration giving a half-maximal response (EC50) was determined as 0.014 µM.
ADPALWACEHAALICETQ (linker 8-15 via Linker 7 (inferred); reading uncertain, synthetic cysteine-stapled peptide) [Peptide ID 2, ADPALWACEHAALICETQ, staple type Linker 7] registered an EC50 of 2.8 µM.
For ADPAPWQCEHAALLCELE (linker 8-15 via Linker 7 (inferred); reading uncertain, synthetic cysteine-stapled peptide) [Peptide ID 11, ADPAPWQCEHAALLCELE, staple type Linker 7], the EC50 worked out at 0.922 µM.
ADPALWACEHAALICETQ (linker 8-15 via Linker 11 (inferred); reading uncertain, synthetic cysteine-stapled peptide) [Peptide ID 41, ADPALWACEHAALICETQ, staple type Linker 11] registered a half-maximal effective concentration (EC50) of 3.02 µM.
The result for ADPAHAECVLDYHICQIW (linker 8-15 via Linker 7 (inferred); reading uncertain, synthetic cysteine-stapled peptide) [Peptide ID 5, ADPAHAECVLDYHICQIW, staple type Linker 7] reads 0.117 µM; that for ADPALWACEHAALICETQ (linker 8-15 via Linker 15a (inferred); reading uncertain, synthetic cysteine-stapled peptide) [Peptide ID 44, ADPALWACEHAALICETQ, staple type Linker 15a], 7.33 µM.
With ADPAQWHCEHAALICELD (linker 8-15 via Linker 7 (inferred); reading uncertain, synthetic cysteine-stapled peptide) [Peptide ID 10, ADPAQWHCEHAALICELD, staple type Linker 7], the response was half-maximal at 0.417 µM (EC50). Compared with the last molecule, the EC50 is about 18-fold lower.
